Assay results reported in publication PMC6713926, “Structural Basis for Properdin Oligomerization and Convertase Stimulation in the Human Complement System” (Frontiers in Immunology, 2019).

Target: T1, Biotinylated C3b (human, UniProt P01024 23-667; P01024 749-1663, biotin (Maleimide-PEG2-Biotin))
T1 construct: complement C3, human, beta chain; complement C3, human, alpha' chain of C3b; also called biotin-C3b; immobilized C3b; source: made from plasma C3 by trypsin cleavage in the presence of Maleimide-PEG2-Biotin, purified by cation exchange
Assay: BLI; biotinylated C3b on streptavidin sensors; FPht variants at 100 to 1.56 μg/mL, 60 s steps; 30°C; 20 mM MES pH 6.0, 100 mM NaCl, 0.05% Tween, 1 mg/mL BSA; steady state 1:1 fit (for WT also kinetic analysis)
Details: both partners purified

T1 sequence (P01024 23-667, chain 1 of 2): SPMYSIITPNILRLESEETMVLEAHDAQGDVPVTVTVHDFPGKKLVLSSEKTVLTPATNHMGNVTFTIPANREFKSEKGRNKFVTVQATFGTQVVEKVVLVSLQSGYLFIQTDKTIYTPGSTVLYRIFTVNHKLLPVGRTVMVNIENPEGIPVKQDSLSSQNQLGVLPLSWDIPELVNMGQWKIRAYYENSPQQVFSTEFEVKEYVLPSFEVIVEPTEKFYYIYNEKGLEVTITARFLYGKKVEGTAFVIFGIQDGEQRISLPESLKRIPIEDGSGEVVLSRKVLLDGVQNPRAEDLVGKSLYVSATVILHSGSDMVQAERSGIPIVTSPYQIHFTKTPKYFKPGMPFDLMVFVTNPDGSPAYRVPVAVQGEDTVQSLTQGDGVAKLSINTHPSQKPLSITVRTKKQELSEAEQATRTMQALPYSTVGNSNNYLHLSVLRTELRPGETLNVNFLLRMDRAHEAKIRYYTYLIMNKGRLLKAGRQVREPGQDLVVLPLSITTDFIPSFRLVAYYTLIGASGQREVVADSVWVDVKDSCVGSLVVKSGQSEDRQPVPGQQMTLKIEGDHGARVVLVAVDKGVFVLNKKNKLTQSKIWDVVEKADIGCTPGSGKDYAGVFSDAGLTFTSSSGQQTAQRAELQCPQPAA
T1 sequence (P01024 749-1663, chain 2 of 2): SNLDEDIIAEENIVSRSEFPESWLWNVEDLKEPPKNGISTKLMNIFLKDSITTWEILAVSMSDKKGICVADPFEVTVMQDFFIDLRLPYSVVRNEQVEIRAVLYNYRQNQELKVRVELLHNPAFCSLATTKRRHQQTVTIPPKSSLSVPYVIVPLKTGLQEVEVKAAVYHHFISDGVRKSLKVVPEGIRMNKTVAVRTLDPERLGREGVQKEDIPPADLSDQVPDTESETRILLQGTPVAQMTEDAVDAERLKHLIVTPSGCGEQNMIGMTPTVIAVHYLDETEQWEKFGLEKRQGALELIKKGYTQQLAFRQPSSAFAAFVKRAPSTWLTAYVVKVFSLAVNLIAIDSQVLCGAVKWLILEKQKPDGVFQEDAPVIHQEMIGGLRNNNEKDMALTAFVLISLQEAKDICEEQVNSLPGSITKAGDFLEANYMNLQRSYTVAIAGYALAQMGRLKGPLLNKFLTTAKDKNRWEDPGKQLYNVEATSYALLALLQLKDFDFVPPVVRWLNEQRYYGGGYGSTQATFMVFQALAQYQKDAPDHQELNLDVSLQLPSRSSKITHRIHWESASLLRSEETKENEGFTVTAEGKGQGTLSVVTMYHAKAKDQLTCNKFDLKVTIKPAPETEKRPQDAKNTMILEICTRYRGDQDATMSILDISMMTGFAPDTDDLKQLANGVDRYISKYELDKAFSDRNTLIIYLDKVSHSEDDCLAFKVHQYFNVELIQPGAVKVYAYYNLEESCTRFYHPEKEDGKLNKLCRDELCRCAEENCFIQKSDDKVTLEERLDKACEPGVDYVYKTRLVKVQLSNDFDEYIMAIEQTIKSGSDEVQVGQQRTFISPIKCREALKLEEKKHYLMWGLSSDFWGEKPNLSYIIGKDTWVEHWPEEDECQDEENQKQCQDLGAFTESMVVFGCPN

B1: FPht R353A (complex)
chain 1: DPVLCFTQYEESSGKCKGLLGGGVSVEDCCLNTAFAYQKRSGGLCQPCRSPRWSLWSTWAPCSVTCSEGSQLRYRRCVGWNGQCSGKVAPGTLEWQLQACEDQQCCPEMGGWSGWGPWEPCSVTCSKGTRTRRRACNHPAPKCGGHCPGQAQESEACDTQQVCPTHGAWATWGPWTPCSASCHGGPHEPKETRSRKCSAPEPSQKPPGKPCPGLAYEQRRCTGLPPCP
chain 2: VAGGWGPWGPVSPCPVTCGLGQTMEQRTCNHPVPQHGGPFCAGDATRTHICNTAVPCPVDGEWDSWGEWSPCIRRNMKSISCQEIPGQQSRGRTCRGAKFDGHRCAGQQQDIRHCYSIQHCPLKGSWSEWSTWGLCMPPCGPNPTRARQRLCTPLLPKYPPTVSMVEGQGEKNVTFWGRPLPRCEELQGQKLVVEEKRPCLHVPACKDPEEEEL
- Kd: 1 µM
